Test results taken from the RNAGym collection of RNA variant scans (doi:10.7554/elife.90254).

B1: LINE1-full (parent)
chain: UACGUAGGUGGUUUUCCCCUGAUAGUGCUAAGGGGGCCUGGAAGUUUGGACUGGGCAGAGCUCAACACAGCGUGGCAAAGUGGCUGUGGCUAGACUGCCUCUCUGGAUUCCUCGUCACUCAGCAGGGCAUCUCUGAGAGAAAUGCC

Variants of: B1
Test: self-cleavage, relative activity (ratio to wild type); higher = more cleavage; in vitro, sequencing; the parent is a self-cleaving ribozyme

Variant | self-cleavage
UACGUAGGUGGUUUUCCCCUGAUAGUGCUAAGGGGGCCUGGAAGUUUGGACUGGGCAGAGUUCAACACAGCGUGGCAAAGUGGCUGUGGCUAGACUGCCUCUCUAGAUUCCUCGUCACUCAGCAGGGCAUCUCUGAGAGAAAUGCC [C61U G105A] | 0.02
UACGUAGGUGGUUUUCCCCUGAUAGUGCUAAGGGGGCCUGGAAGUUUGGACUGGGCAGAGUUCAACACAGCGCGGCAAAGUGGCUGUGGCUAGACUGCCUCUCUGGAUUCCUCGUCACUCAGCAGGGCAUCUCUGAGAGAAAUGCC [C61U U73C] | 0.02
UACGUAGGUGGUUUUCCCCUGAUAGUGCUAAGGGGGCCUGGAAGUUUGGACUGGGCAGAGUUCAACACAGCGUGGCAAAGUGGCAGUGGCUAGACUGCCUCUCUGGAUUCCUCGUCACUCAGCAGGGCAUCUCUGAGAGAAAUGCC [C61U U85A] | 0.03
UACGUAGGUGGUUUUCCCCUGAUAGUGCUAAGGGGGCCUGGAAGUUUGGACUGGGCAGAGUUCAACACAGCGUGGCAAAGUGGCUGUGGCCAGACUGCCUCUCUGGAUUCCUCGUCACUCAGCAGGGCAUCUCUGAGAGAAAUGCC [C61U U91C] | 0.03
UACGUAGGUGGUUUUCCCCUGAUAGUGCUAAGGGGGCCUGGAAGUUUGGACUGGGCAGAGUUCAACACAGCGUGGCAAAGUGGCUGUGGCUAGACCGCCUCUCUGGAUUCCUCGUCACUCAGCAGGGCAUCUCUGAGAGAAAUGCC [C61U U96C] | 0.03
UACGUAGGUGGUUUUCCCCUGAUAGUGCUAAGGGGGCCUGGAAGUUUGGACUGGGCAGAGUUCAACACAGCGUGGCAAAGUGGCUGUGGCUAGACUGCCUCCCUGGAUUCCUCGUCACUCAGCAGGGCAUCUCUGAGAGAAAUGCC [C61U U102C] | 0.03
UACGUAGGUGGUUUUCCCCUGAUAGUGCUAAGGGGGCCUGGAAGUUUGGACUGGGCAGAGUUCAACACAGCGUGGCAAAGUGGCUGUGGCUAGACUGCCUCUCAGGAUUCCUCGUCACUCAGCAGGGCAUCUCUGAGAGAAAUGCC [C61U U104A] | 0.02
UACGUAGGUGGUUUUCCCCUGAUAGUGCUAAGGGGGCCUGGAAGUUUGGACUGGGCAGAGUUCAACACAGCGUGGCAAAGUGGCUGUGGCUAGACUGCCUCUCUGGACUCCUCGUCACUCAGCAGGGCAUCUCUGAGAGAAAUGCC [C61U U108C] | 0.01
UACGUAGGUGGUUUUCCCCUGAUAGUGCUAAGGGGGCCUGGAAGUUUGGACUGGGCAGAGUUCAACACAGCGUGGCAAAGUGGCUGUGGCUAGACUGCCUCUCUGGAUUCCUCGCCACUCAGCAGGGCAUCUCUGAGAGAAAUGCC [C61U U115C] | 0.02
UACGUAGGUGGUUUUCCCCUGAUAGUGCUAAGGGGGCCUGGAAGUUUGGACUGGGCAGAGUUCAACACAGCGUGGCAAAGUGGCUGUGGCUAGACUGCCUCUCUGGAUUCCUCGUCACCCAGCAGGGCAUCUCUGAGAGAAAUGCC [C61U U119C] | 0.05
UACGUAGGUGGUUUUCCCCUGAUAGUGCUAAGGGGGCCUGGAAGUUUGGACUGGGCAGAGUUCAACACAGCGUGGCAAAGUGGCUGUGGCUAGACUGCCUCUCUGGAUUCCUCGUCACUCAGCAGGGCACCUCUGAGAGAAAUGCC [C61U U130C] | 0.05
UACGUAGGUGGUUUUCCCCUGAUAGUGCUAAGGGGGCCUGGAAGUUUGGACUGGGCAGAGUUCAACACAGCGUGGCAAAGUGGCUGUGGCUAGACUGCCUCUCUGGAUUCCUCGUCACUCAGCAGGGCAUCUCGGAGAGAAAUGCC [C61U U134G] | 0
UACGUAGGUGGUUUUCCCCUGAUAGUGCUAAGGGGGCCUGGAAGUUUGGACUGGGCAGAGCACAACACAGCGUGGCAAAGUGGCUGUGGCUAGACUGCCUCUCUGGAUUCCUCGUCACUCAGCAGGGCAUCUCUGAGAGAAAUGCC [U62A] | 0.04
UACGUAGGUGGUUUUCCCCUGAUAGUGCUAAGGGGGCCUGGAAGUUUGGACUGGGCAGAGCACCACACAGCGUGGCAAAGUGGCUGUGGCUAGACUGCCUCUCUGGAUUCCUCGUCACUCAGCAGGGCAUCUCUGAGAGAAAUGCC [U62A A64C] | 0.11
UACGUAGGUGGUUUUCCCCUGAUAGUGCUAAGGGGGCCUGGAAGUUUGGACUGGGCAGAGCACGACACAGCGUGGCAAAGUGGCUGUGGCUAGACUGCCUCUCUGGAUUCCUCGUCACUCAGCAGGGCAUCUCUGAGAGAAAUGCC [U62A A64G] | 0.05
UACGUAGGUGGUUUUCCCCUGAUAGUGCUAAGGGGGCCUGGAAGUUUGGACUGGGCAGAGCACAACGCAGCGUGGCAAAGUGGCUGUGGCUAGACUGCCUCUCUGGAUUCCUCGUCACUCAGCAGGGCAUCUCUGAGAGAAAUGCC [U62A A67G] | 0.07
UACGUAGGUGGUUUUCCCCUGAUAGUGCUAAGGGGGCCUGGAAGUUUGGACUGGGCAGAGCACAACUCAGCGUGGCAAAGUGGCUGUGGCUAGACUGCCUCUCUGGAUUCCUCGUCACUCAGCAGGGCAUCUCUGAGAGAAAUGCC [U62A A67U] | 0.06
UACGUAGGUGGUUUUCCCCUGAUAGUGCUAAGGGGGCCUGGAAGUUUGGACUGGGCAGAGCACAACACAGCGUGGCGAAGUGGCUGUGGCUAGACUGCCUCUCUGGAUUCCUCGUCACUCAGCAGGGCAUCUCUGAGAGAAAUGCC [U62A A77G] | 0.07
UACGUAGGUGGUUUUCCCCUGAUAGUGCUAAGGGGGCCUGGAAGUUUGGACUGGGCAGAGCACAACACAGCGUGGCUAAGUGGCUGUGGCUAGACUGCCUCUCUGGAUUCCUCGUCACUCAGCAGGGCAUCUCUGAGAGAAAUGCC [U62A A77U] | 0.01
UACGUAGGUGGUUUUCCCCUGAUAGUGCUAAGGGGGCCUGGAAGUUUGGACUGGGCAGAGCACAACACAGCGUGGCAAGGUGGCUGUGGCUAGACUGCCUCUCUGGAUUCCUCGUCACUCAGCAGGGCAUCUCUGAGAGAAAUGCC [U62A A79G] | 0.04
